Results taken from the nanobody polyreactivity screen of Harvey et al. (2022).

Assay: yeast display, Sf9 membrane polyspecificity reagent, FACS + sequencing; frameworks hold sequencing errors
How it was run: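 Synthetic nanobody libraries on Saccharomyces cerevisiae BJ5465 were galactose-induced for 36–48 hours, stained 1 hour at 4 °C with 10% biotinylated, detergent-solubilized Sf9 membrane reagent and enriched on streptavidin microbeads. FACS then separated cells into low and high (top ~1%) gates by anti-HA (expression) and streptavidin (reagent binding) fluorescence. Genes were colony-PCR amplified, MiSeq 2 × 250 sequenced and CDR-length filtered. A clone's polyreactivity label is that of its gate of origin.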

Row | Sequence | polyreactivity (PSR sort gate)
1 | QVQLVDSGGGLVQAGGSLRLSCAASGIIFRAYAMGWSRAAPGKERELVAAISRRGSTTYYADSVKGRFTISRDNAKNTVYLQMNSLKPEDTAVYFCAADYAGPTGFDYWGQGTQVTVSS | high polyreactivity
2 | QVQLVDSGGGLVQAGGSLRLSCAASGIIFSVYAMGWYRQAPGKERELVAAITYSGGSTYYADSVKGRFTISRDNAKNTVYLQMNSLKPEDTAVYYCNAYRYNALPWRYVGYDYWGQGTQVTVSS | low polyreactivity
3 | QVQLVDSGGGLVQAGGSLRLSCAASGIIIKLYAMGWYRQAPGKEREFVATITKTGGRTYYADSVKGRFTISRDNAKNTVYLQMNSLKPEDTAVYYCAARRVNGKMYYWGQGTQVTVSS | high polyreactivity
4 | QVQLVDSGGGLVQAGGSLRLSCAASGINFVWNVMGWYRQAPGKERELVADITSGGRTHYADSVKGRFTISRDNAKNTVYVQMNSLKPDDTAVYYCAARKYWRYQNYDYWGQGTQVTVSS | low polyreactivity
5 | QVQLVDSGGGLVQAGGSLRLSCAASGITFNLYAMGWYRQAPGKERELVAAISNVGSTKYADSVKGRFTISRDNAKNTVYLQMTSLKPEDTAVYYCAADWDRYPDYDYWGQGTQVTVSS | low polyreactivity
6 | QVQLVDSGGGLVQAGGSLRLSCAASGITFVFYAMGWYRQAPGKERELVAAISSSGGSTYYADSVKGRFTISRDNAKNTVYLQMNSLKPEDTAVYYCNAKVFSYQGAVRYDYWGQGTQVTVSS | high polyreactivity
7 | QVQLVDSGGGLVQAGGSLRLSCAASGNTFVTYTMGWYRQAPGKERELVADISSGGSTYYADSVKGRFTISRDNAKNTVYLQMYSLKPEDTAVYYCAVLQAVFRSYYIYHRYYWGQGTKVTVSS | high polyreactivity
8 | QVQLVDSGGGLVQAGGSLRLSCAASGRIFGPYAMVWYRQAPGKERELVASISYSGGSTYYADSVKGRFTISRDNAKNTVYLQMNSLKPEDTAVYYCAKGGYWGGYNYWGQGTQVTVSS | low polyreactivity
9 | QVQLVDSGGGLVQAGGSLRLSCAASGRIFLYNGMGWYRQAPGKERELVAGIITGGNTNYADSVKGRFTISRDNAKNTVYLQMNSLKPEDTAVYYCAAEVIVYGWSPDYDYWGQGTQVTLSS | low polyreactivity
10 | QVQLVDSGGGLVQAGGSLRLSCAASGRIFQQNAMGWYRQAPGKERELVAAISWRGTSTYYADSVKGRFTISRDNAKNTVYLQMNSLKPEDTAVYYCAAQGYAYTLVAKVYRWYEYAYWGQGTQVTVSS | high polyreactivity
11 | QVQLVDSGGGLVQAGGSLRLSCAASGRIFRRYTMGWYRQAPGKERELVAAISSGGGTNYADSVKGRFSISRDNAKNTVYLQMNSLKPEDTAVYYCNARSWLSRGYGYWGQGTQVTVSS | high polyreactivity
12 | QVQLVDSGGGLVQAGGSLRLSCAASGRIFRSYAMGWYRQAPGKERELVAGISSTGGNTYYADSVKGRFTISRDNAKNTVYLQMNSLKPEDTAVYYCAAYWFRGYKYWGQGTQVTVSS | high polyreactivity
13 | QVQLVDSGGGLVQAGGSLRLSCAASGRIIWYKGMGWYTQATGKERELVAAINRGTSTYYADSVKGRFTISRDNAKNSVYLQMNSLKPEDTAVYYCAAGVSRWYYYWGQGTQVTVSS | high polyreactivity
14 | QVQLVDSGGGLVQAGGSLRLSCAASGRTFAYNVMGWYRQAPGKERELVAAISRGGGRTYYADSVKGRFTIARDNAKNTVYLQMNSLKPEDTAVYYCNAYLFFLNRVWSFDYWGQGTQVTVSS | high polyreactivity
15 | QVQLVDSGGGLVQAGGSLRLSCAASGRTFGGNAIGRYIQAPGKETELVAGINISGGSTNYADSVKGRFTISRDNAMNTVYLQMNSLKPEDTPVYYCNADTAVYAWDDDYWGQGTQVTVSS | low polyreactivity
16 | QVQLVDSGGGLVQAGGSLRLSCAASGRTFQRNAMGWYRQAPGTERELVATITTNGGSTYYADSVKGRFTISRDNAKNTVYLQMNSLKPEDTAVYYCAAPFNPRVRTLRSVRMDYWGQGTQVTVSS | low polyreactivity
17 | QVQLVDSGGGLVQAGGSLRLSCAASGRTFRYYDMGWYRPAPGEVREFVAAITWRGGSTYYADSVKGRFTISRDNAKNTVYSQMNSLKPEDTAVYYCATDSLRLYGGKRDLYYWGQGTQVTVSS | low polyreactivity
18 | QVQLVDSGGGLVQAGGSLRLSCAASGRTFSLYAMGWYRQAPGKERELVATISQSGGSTYYADSVKGRFTISRDNAKNTVYLQMNSQKPEDTAVYNCAAGGIYLDYFGQGTQVTVSS | low polyreactivity
19 | QVQLVDSGGGLVQAGGSLRLSCAASGRTFSVNAMGWYRQAPGKERELVAAISSAGSTNYADSVKGRFTISRDNAKNTVYLQMNSLKPEDTAVYYCAAGFSPGNYDAPTLAFDYWGQGTQVTLSS | low polyreactivity
20 | QVQLVDSGGGLVQAGGSLRLSCAASGRTFTVYAMGWYRQAPGKERELVASISGSSGSTDYADSVKGRFTISRDNAKNTVYLQMNSLKPEDTAVYFCAKASSATRYVQLRQDYDYWGQGTQVTVSS | low polyreactivity
21 | QVQLVDSGGGLVQAGGSLRLSCAASGRTFWIYAMGWYRPAPGKERELVAAISRGGSTYADSVKGRFTISRDNAKNTVYLQMNSLKPEDTAVYYCAASTPQYQYYYWGQGTQVTVSS | high polyreactivity
22 | QVQLVDSGGGLVQAGGSLRLSCAASGSIFAGYTMGGYRQAPGKEREFVAAISSSGGSTYYADSVKGRFTISRDNAKNTVYLQMNSLKPEDTAVSYCAVRGRISSVSRYGYWGQGTQVTVSS | high polyreactivity

Row | Sequence | polyreactivity (PSR sort gate)
23 | QVQLVDSGGGLVQAGGSLRLSCAASGSIFGLYAMGWYRQAPGKERELVAAISASGGSTYYADSVKGRFTISRDNAKNTVYLQMNSLKPEDTAVYYCAADLGYPTYDYWGQDTQVTVSS | low polyreactivity
24 | QVQLVDSGGGLVQAGGSLRLSCAASGSIFGSYVMGWYRQAPGKERELVAAISSSGASTYYADSVKGRFTISRDNAKNTVYLQMNSLKPEDTAVYYCAAGYVHLYYFHEYYWGQGTQVTVSS | high polyreactivity
25 | QVQLVDSGGGLVQAGGSLRLSCAASGSIFHVNAMGWYRQAPGKERELVAAIRSDASTNYADSVKGRFTISRDNAKNTVYLQMNILKPEDTAVYYCNTAQLVSDEFDYSGQGTQVTVSS | low polyreactivity
26 | QVQLVDSGGGLVQAGGSLRLSCAASGSIFPDNAMGWYRQAPGKEWEFVAAINWSTGTTYYADSVKGRFTISRDNAKNTVYLQMNSLKPEDTAVYYFNASDQAKYDYWGQGTQVTVSS | low polyreactivity
27 | QVQLVDSGGGLVQAGGSLRLSCAASGSIFSVYAMGWYRQAPGKERELVAAISSRGGSTYYADSVKGRFTISRDNAKNTVYLQMNSLKPEDTAVYYCAASRQSQRGYWGQGTQVTVSS | high polyreactivity
28 | QVQLVDSGGGLVQAGGSLRLSCAASGSIFWDYAMGWYRQAPGIERELVASIPSGGSTYYADSVKGRFTISRDNAKKTVYLQMNRLKPEDTAVYYCAADGHTRHWGQTGRGAMYYWGQGTQVTVSS | low polyreactivity
29 | QVQLVDSGGGLVQAGGSLRLSCAASGSIFYRNAMGWSRQAPGKERELVAAITRGGSTYYADSVKGRFTISRDNAKNTVYLQMNSLKPEDTAVYYCNAYGGFAYSYDYWGQGTQVTVSS | high polyreactivity
30 | QVQLVDSGGGLVQAGGSLRLSCAASGSILESNVMGWYRQAPGKERELVASISSSGDSTYADSVKGRFTISRDNAKNTVYLQMNILKPEYTAVYYCAADRWYWTYALYYWGQGTQVTVSS | low polyreactivity
31 | QVQLVDSGGGLVQAGGSLRLSCAASGSILFEYMGWYRQAPGKERELVAAITIRDGGTYYADSVKGRFTISRDNAKNTVYLQMNSLKPEDTAVYYCNADFSGGWRYDYWGQGTQVTVSS | low polyreactivity
32 | QVQLVDSGGGLVQAGGSLRLSCAASGSTFDPYTMGWYRQAPGTERELVAGMTGGGSTYYADCVKGRFTISRDNAKNTVYLQMNSLKPEDTAVYYCARDYSYYKGPDGHYWGQGTQVTVSS | low polyreactivity
33 | QVQLVDSGGGLVQAGGSLRLSCAASGSTFDVYAMGWYRQAPGKERELVAVINTSGTRTYYADSVKGRFTISRDNAKNTVYLQMNSLKPEDTEVYYCNAGGHLEMNYWGQGTQVTVSS | low polyreactivity
34 | QVQLVDSGGGLVQAGGSLRLSCAASGSTFISYAMRWYRPAPGKERELVAAISSSTGRTYYADSVKGRFTISRDNAKNTVYLQMNSLKPEDTAVYYCNAVHRYERVYWGQGTQVTVSS | high polyreactivity
35 | QVQLVDSGGGLVQAGGSLRLSCAASGSTFQGNTMGWYRQAPGKERELVAAISRSGGITYYADSVKGRFTISRVNAKNTVYLQMNSLKPEDTAVYYCAAKQVFTAGRSVDYWGQGTQVTVSS | high polyreactivity
36 | QVQLVDSGGGLVQAGGSLRLSCAASGSTFVYNTMGWYSHAPGKERELVAAISYRGSTYYADSVKGRFTISRENAKNTVYLQMNSLKPEDTAVYYCNGPRRQYEYDFWGLGTQVTVSS | high polyreactivity
37 | QVQLVDSGGGLVQAGGSLRLSCAASGSTLRRYAMGWYRQAPGKERELVAAISGSGDSTYYADSVKGRFTISRDNAKNTVYLQMNSLKPEDTAVYYCNAVYAFNGYDYWGQGTQVTVSS | low polyreactivity
38 | QVQLVDSGGGLVQAGGSLRLSCAASGYSFYFYAMGWYRQAPGKERELVAAITGGGTTSYADSVKGRFTISRDNAKNTVYLQMNSLKPEDTAVYYCNVLFADKSDYWGQGTLVTVSS | low polyreactivity
39 | QVQLVDSGGGLVQAGGSLRLSCAASGYTFDRYAMGWYRQAPGKERELVAAISVRGGRTHYADSVKGRFTISRDNAKNTVYLQMNSLKPEDTAVYYCNKDSKGGYSVPHDYWGQGTQVTVSS | low polyreactivity
40 | QVQLVDSGGGLVQAGGSLRLSCAASGYTLSVNAMGWYRQAPGKERELVATIDFGGGSTYYADSVKGRFTISRDNAKNTVYLQMNSLKPEDTAVYYCNAHDFGFYRFSLPGYDYWGQGTQVTVSS | low polyreactivity
41 | QVQLVDSGGGLVQAGGSLRLSCAASVFTFYCNAMGWYRQAPGKERELVAAITSTGNTYYADSVKGRFTISRDNAKNTVYLQMNSLKPEDTAVYYCARRGDILYDYWGQGTQVTVSS | low polyreactivity
42 | QVQLVDSGGGLVQAGGSLRLSCAPYVLIFWAYAMGWYRQAPGKERELVAAISWSGARTYYADSVMGRFTISRDHAKHTVYLQMNSLKPEDTAVYYCAVGVQSSKRHDYWGQGTQVTVSS | high polyreactivity
43 | QVQLVDSGGGLVQAGGSLRLSCPASGRTFFNNVMGWSRQAPGKEREWVAAISKSGTRTYYADSVKGRFTISRDNAKNTVYLQMNSLKPEDTAVYYCATGPYLRTSRYYYWGQGTQVTVSS | high polyreactivity
